Assay results from publication PMC9482650, “Quantitative fragmentomics allow affinity mapping of interactomes” (Nature Communications, 2022).

T1: APBA3_1, O96018
T1 sequence (O96018 389-490, limits assumed, looked up): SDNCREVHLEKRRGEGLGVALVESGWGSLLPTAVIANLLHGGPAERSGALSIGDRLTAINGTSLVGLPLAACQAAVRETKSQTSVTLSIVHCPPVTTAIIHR

T2: SNTA1, Q13424
T2 sequence (Q13424 82-180, limits assumed, looked up): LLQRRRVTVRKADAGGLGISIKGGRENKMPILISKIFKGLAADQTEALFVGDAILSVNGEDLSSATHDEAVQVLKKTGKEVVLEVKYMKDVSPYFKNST

T3: APBA2_1, Q99767
T3 sequence (Q99767 563-664, limits assumed, looked up): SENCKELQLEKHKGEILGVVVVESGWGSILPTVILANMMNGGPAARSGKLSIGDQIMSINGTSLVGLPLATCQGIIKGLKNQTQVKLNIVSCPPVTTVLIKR

T4: DLG3_3, Q92796
T4 sequence (Q92796 374-475, limits assumed, looked up): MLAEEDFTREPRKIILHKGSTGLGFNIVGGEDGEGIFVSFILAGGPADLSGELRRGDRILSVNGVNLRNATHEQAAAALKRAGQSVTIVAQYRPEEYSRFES

T5: HTRA3, P83110
T5 sequence (P83110 354-453, limits assumed, looked up): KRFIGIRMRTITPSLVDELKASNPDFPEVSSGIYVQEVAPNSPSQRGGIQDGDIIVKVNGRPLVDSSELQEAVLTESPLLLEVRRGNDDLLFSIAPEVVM

T6: SNTG1, Q9NSN8
T6 sequence (Q9NSN8 52-150, limits assumed, looked up): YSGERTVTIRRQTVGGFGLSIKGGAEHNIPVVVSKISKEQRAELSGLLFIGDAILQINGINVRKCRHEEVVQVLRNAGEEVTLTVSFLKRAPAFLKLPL

T7: DFNB31_2, Q9P202
T7 sequence (Q9P202 274-371, limits assumed, looked up): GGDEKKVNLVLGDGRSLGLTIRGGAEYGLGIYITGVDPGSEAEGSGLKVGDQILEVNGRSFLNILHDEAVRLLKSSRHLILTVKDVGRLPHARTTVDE

T8: MPP6, Q9NZW5
T8 sequence (Q9NZW5 125-219, limits assumed, looked up): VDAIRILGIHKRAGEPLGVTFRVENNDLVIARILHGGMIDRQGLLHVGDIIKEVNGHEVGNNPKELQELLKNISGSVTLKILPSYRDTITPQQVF

T9: DLG3_2, Q92796
T9 sequence (Q92796 221-321, limits assumed, looked up): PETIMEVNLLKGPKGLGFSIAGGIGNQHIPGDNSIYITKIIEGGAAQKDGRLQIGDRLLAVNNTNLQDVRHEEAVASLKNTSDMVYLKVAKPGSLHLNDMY

T10: PARD3B_1, Q8TEW8
T10 sequence (Q8TEW8 196-299, limits assumed, looked up): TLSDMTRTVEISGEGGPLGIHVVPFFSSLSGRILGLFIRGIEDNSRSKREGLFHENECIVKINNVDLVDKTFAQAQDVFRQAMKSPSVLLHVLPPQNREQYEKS

T11: DFNB31_3, Q9P202
T11 sequence (Q9P202 811-907, limits assumed, looked up): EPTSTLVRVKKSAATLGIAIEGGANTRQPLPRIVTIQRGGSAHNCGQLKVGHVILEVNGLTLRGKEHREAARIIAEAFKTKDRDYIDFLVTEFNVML

B1: PLXNB1, O43157 (peptide)
chain: AAVENKVTDL
B2: RNF130, Q86XS8 (peptide)
chain: SLNANEVEWF
B3: FZD4, Q9ULV1 (peptide)
chain: KPGKGSETVV
B4: PFKM, P08237 (peptide)
chain: TRKRSGEAAV

Tests used:
Assay in all cases: holdup assay
Set-up in all cases: key: below the threshold = too weak to quantify, mostly under pKd 3.1 to 4
Settings in all cases: plain residues with an end cap or a label only (N-terminal biotin on a linker: ado-ado)
[1] = target: LNX1_2, Q8TBB1
[2] = target: T1, APBA3_1, O96018
[3] = target: T2, SNTA1, Q13424
[4] = target: GRASP, Q7Z6J2
[5] = target: T3, APBA2_1, Q99767
[6] = target: T4, DLG3_3, Q92796
[7] = target: T5, HTRA3, P83110
[8] = target: Inadl_9, Q8NI35
[9] = target: T6, SNTG1, Q9NSN8
[10] = target: IL16_4, Q14005
[11] = target: T7, DFNB31_2, Q9P202
[12] = target: GRIP2_5, Q9C0E4
[13] = target: T8, MPP6, Q9NZW5
[14] = target: NHERF2_2, Q15599
[15] = target: LAP2, Q96RT1
[16] = target: SCRIB_1, Q14160
[17] = target: T9, DLG3_2, Q92796
[18] = target: DLG4_3, P78352
[19] = target: MAGI2_4, Q86UL8
[20] = target: HTRA1, Q92743
[21] = target: T10, PARD3B_1, Q8TEW8
[22] = target: Inadl_2, Q8NI35
[23] = target: IL16_1, Q14005
[24] = target: Inadl_6, Q8NI35
[25] = target: T11, DFNB31_3, Q9P202
[26] = target: MAST1, Q9Y2H9
Sequence of MAST1, Q9Y2H9 (Q9Y2H9 962-1065): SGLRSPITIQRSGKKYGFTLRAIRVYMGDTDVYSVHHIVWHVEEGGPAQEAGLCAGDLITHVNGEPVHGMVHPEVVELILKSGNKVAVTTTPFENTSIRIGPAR

Sequence of Inadl_9, Q8NI35 (Q8NI35 1530-1615): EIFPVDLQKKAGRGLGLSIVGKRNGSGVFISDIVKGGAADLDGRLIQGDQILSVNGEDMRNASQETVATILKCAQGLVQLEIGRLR
Sequence of DLG4_3, P78352 (P78352 306-403): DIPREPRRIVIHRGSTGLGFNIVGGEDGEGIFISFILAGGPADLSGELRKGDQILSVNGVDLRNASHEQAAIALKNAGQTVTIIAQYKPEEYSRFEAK
Sequence of Inadl_2, Q8NI35 (Q8NI35 238-335): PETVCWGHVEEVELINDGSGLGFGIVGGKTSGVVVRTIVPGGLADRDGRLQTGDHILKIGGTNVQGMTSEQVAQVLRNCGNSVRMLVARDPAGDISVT
Sequence of LAP2, Q96RT1 (Q96RT1 other isoform, or with tags, fused parts or gaps): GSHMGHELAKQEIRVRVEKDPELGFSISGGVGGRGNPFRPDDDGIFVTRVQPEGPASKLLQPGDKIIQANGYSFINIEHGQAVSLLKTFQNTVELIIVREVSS
Sequence of GRASP, Q7Z6J2 (Q7Z6J2 96-193): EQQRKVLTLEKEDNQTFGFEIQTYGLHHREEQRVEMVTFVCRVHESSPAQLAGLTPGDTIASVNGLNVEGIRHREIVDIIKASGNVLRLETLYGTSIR
Sequence of IL16_1, Q14005 (Q14005 210-306): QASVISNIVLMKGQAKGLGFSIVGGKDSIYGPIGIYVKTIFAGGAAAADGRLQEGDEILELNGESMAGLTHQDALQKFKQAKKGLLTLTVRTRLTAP
Sequence of GRIP2_5, Q9C0E4 (Q9C0E4 544-642): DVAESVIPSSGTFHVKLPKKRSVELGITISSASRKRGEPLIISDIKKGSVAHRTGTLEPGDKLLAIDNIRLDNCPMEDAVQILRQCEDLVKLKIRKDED
Sequence of MAGI2_4, Q86UL8 (Q86UL8 772-865): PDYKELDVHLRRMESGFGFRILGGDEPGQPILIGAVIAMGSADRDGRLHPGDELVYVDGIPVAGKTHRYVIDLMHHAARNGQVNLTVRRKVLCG
Sequence of HTRA1, Q92743 (Q92743 360-477): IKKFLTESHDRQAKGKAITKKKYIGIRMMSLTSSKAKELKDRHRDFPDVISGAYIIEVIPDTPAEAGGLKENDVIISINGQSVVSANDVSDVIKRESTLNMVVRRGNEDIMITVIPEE
Sequence of NHERF2_2, Q15599 (Q15599 142-238): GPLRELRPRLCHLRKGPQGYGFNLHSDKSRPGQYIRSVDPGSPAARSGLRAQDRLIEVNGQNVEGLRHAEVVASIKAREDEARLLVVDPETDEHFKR
Sequence of SCRIB_1, Q14160 (Q14160 718-814): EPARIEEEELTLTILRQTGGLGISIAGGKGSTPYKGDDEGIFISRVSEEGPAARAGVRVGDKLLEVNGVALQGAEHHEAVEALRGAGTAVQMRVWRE
Sequence of IL16_4, Q14005 (Q14005 1229-1329): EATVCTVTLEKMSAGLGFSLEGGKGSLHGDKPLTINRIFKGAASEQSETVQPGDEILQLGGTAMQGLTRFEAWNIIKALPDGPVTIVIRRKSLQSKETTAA
Sequence of LNX1_2, Q8TBB1 (Q8TBB1 371-470): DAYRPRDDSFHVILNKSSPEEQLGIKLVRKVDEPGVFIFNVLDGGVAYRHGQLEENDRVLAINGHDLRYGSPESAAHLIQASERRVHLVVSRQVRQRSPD
Sequence of Inadl_6, Q8NI35 (Q8NI35 1058-1167): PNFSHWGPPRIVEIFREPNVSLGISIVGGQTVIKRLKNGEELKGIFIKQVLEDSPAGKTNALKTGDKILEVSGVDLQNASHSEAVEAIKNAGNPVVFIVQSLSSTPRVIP

| Binder | pKd [1] | pKd [2] | pKd [3] | pKd [4] | pKd [5] | pKd [6] | pKd [7] | pKd [8] | pKd [9] | pKd [10] | pKd [11] | pKd [12] | pKd [13] | pKd [14] | pKd [15] | pKd [16] | pKd [17] | pKd [18] | pKd [19] | pKd [20] | also measured |
| --- | --- | --- | --- | --- | --- | --- | --- | --- | --- | --- | --- | --- | --- | --- | --- | --- | --- | --- | --- | --- | --- |
| B1 | below the threshold | below the threshold | 4.33 | 3.93 | below the threshold | below the threshold | below the threshold | below the threshold | 3.74 | below the threshold | below the threshold | below the threshold | below the threshold | 4.07 | 3.54 | 4.62 | 3.72 | below the threshold | below the threshold | 4.12 | pKd [21]: 3.54; pKd [22]: below the threshold; pKd [23]: below the threshold; pKd [24]: 4.14; pKd [25]: 3.94; pKd [26]: 4.67 |
| B2 | below the threshold | 3.55 | below the threshold | 4.08 | 3.61 | 3.63 | 4.68 | below the threshold | below the threshold | below the threshold | below the threshold | below the threshold | 4.05 | 4.56 | below the threshold | 3.77 | 4.22 | below the threshold | 3.94 | 4.49 | pKd [21]: 4.35; pKd [22]: 4.09; pKd [23]: below the threshold; pKd [24]: 3.57; pKd [25]: 4.16; pKd [26]: 3.96 |
| B3 | 3.56 | below the threshold | 4.6 | below the threshold | below the threshold | 4.02 | below the threshold | below the threshold | 3.91 | below the threshold | below the threshold | below the threshold | below the threshold | below the threshold | below the threshold | 4.04 | 4.77 | 3.79 | 4.48 | 4.3 | pKd [21]: below the threshold; pKd [22]: below the threshold; pKd [23]: 3.61; pKd [24]: 3.56; pKd [25]: below the threshold; pKd [26]: 4.4 |
| B4 | below the threshold | below the threshold | below the threshold | below the threshold | below the threshold | below the threshold | below the threshold | below the threshold | below the threshold | 3.64 | below the threshold | below the threshold | below the threshold | below the threshold | 3.48 | below the threshold | below the threshold | below the threshold | below the threshold | below the threshold | pKd [21]: below the threshold; pKd [22]: below the threshold; pKd [23]: 3.63; pKd [24]: below the threshold; pKd [25]: below the threshold; pKd [26]: 4.08 |
